Source: patent US20160137713A1 (HANALL BIOPHARMA, published 2016)
Where a chain is given by its changes, count along the chain named. Blank lines part the entries; values can stand above or below the binder they belong to.

Legend:
soluble human FcRn [1] = biological target: T1, soluble human FcRn (human, UniProt P55899 24-297; P61769 21-119); test: SPR, shFcRn immobilised, pH 7.4
T1 construct: extracellular domain;mature; Non-covalent heterodimer secreted by 293 cells, purified on IgG Sepharose; also called shFcRn; soluble FcRn
Protocol: (§1) Measurement of the binding ability of antibody by SPR was performed by immobilizing shFcRn as a ligand onto a Proteon GLC chip (Bio-Rad) and measuring affinity.
(§2) The analysis of ligand and analyte was performed using a Proteon GLC chip, and the interaction was analyzed at a pH of 6.0 and a pH of 7.4. Immobilization of the ligand was activated by injecting a 1:1 mixture of 1×EDAC (EDC) and 1× Surfo-NHS for 5 minutes. shFcRn was diluted in 10 mM sodium acetate (pH 4.5) at a concentration of 25 μg/ml and added to the ligand at a flow rate of 30 μl/min for 5 minutes. […] The analyte antibody was allowed to flow on the immobilized chip at a flow rate of 30 μl/min. […] The association time of the analyte antibody was 240 seconds, and the dissociation time was 600 seconds. Regeneration of the chip was performed by injecting 10 mM glycine (pH 2.5) at a flow rate of 100 μl/min for 18 seconds. Based on sensorgrams resulting from six concentrations of the analyte, kinetics analysis was performed using Proteon XPR36 software.

[2] = biological target: T2, mouse FcRn on 3T3-L1 cells (mouse, UniProt Q61559 22-365; P01887 21-119); test: FACS on mouse FcRn-expressing 3T3-L1 cells at pH 6.0 and pH 7.4, FITC anti-human IgG goat antibody; MFI relative to hIgG
T2 construct: whole, on cells; also called NIH3T3L1
T2 sequence (looked up): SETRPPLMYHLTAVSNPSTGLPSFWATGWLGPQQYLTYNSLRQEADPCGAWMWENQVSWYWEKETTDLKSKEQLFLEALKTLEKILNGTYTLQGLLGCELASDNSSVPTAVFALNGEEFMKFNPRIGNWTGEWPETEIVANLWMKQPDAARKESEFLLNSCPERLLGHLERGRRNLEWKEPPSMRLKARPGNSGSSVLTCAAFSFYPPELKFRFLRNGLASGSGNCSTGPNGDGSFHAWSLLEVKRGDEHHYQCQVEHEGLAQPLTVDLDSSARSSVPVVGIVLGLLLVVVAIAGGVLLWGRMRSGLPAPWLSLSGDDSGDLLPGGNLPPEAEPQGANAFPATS
T2 sequence (b2m, looked up): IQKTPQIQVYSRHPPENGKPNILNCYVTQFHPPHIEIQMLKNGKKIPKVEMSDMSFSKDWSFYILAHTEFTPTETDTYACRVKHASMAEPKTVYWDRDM
Protocol: 3T3-L1 cells stably expressing mouse FcRn were cultured in 10% FCS DMEM medium, and then detached from the culture plate by trypsin treatment. The cells were washed three times with cold binding buffer (PBS, pH 6.0 10 mM EDTA), and then diluted in binding buffer at a concentration of 10⁵ cells/ml. 100 μl of the cell dilution was dispensed into each 1.5-ml tube in such a manner that each tube contained 10⁴ cells, and 1 μl of HL161 antibody (1 mg/ml) was added to the dispensed cells. Next, the cells were incubated on ice. As control antibodies, 1 μl of each of rabbit antibody (Santacruz, sc-66893) and human IgG (Abcam, cat#. 409120), which bind to mouse FcRn, was used. The cells were recovered by centrifugation at 4° C. and 4000 rpm for 5 minutes, after which the cells were washed once with binding buffer and resuspended in 100 μl of binding buffer. As FITC-conjugated secondary antibody, 1 μl of anti-human IgG goat antibody (Invitrogen, Cat*. A11013) was added to the cells. In the case of the experiment using anti-mouse FcRn rabbit antibody, the anti-rabbit antibody was incubated with the cells on ice for 1 hour, and then the cells were recovered by centrifugation at 4° C. and 700 g for 5 minutes, washed once with binding buffer, resuspended in 400 ul of binding buffer and analyzed by FACS to examine the cross-reactivity of the HL161 antibodies with mouse FcRn (see FIG. 4). An experiment at a pH of 7.4 was performed using binding buffer at a pH of 7.4 in the same manner as the experiment using binding buffer at a pH of 6.0. The degree of the binding of each antibody to mouse FcRn was presented as relative MFI based on human IgG.

rat FcRn on Rat-2 cells = biological target: T3, rat FcRn on Rat-2 cells (rat, UniProt P13599 23-366; P07151 21-119); test: FACS on rat FcRn-expressing Rat-2 cells at pH 6.0 and pH 7.4, FITC anti-human IgG goat antibody; MFI relative to hIgG
T3 construct: whole, on cells
T3 sequence (looked up): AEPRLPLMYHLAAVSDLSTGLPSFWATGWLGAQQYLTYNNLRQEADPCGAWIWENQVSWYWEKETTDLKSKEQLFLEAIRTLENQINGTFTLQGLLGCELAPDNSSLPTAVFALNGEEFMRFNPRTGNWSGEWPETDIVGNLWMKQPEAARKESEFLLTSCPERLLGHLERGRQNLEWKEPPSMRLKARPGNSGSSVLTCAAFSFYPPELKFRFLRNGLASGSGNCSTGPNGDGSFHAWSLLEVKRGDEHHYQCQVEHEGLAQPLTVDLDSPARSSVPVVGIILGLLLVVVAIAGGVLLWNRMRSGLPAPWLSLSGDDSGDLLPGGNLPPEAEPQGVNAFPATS
T3 sequence (b2m, looked up): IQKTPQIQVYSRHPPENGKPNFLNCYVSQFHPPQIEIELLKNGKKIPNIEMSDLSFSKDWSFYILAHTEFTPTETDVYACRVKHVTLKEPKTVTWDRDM
Protocol: Rat-2 (KCTC #AC28203), rat fibroblasts stably expressing rat FcRn, were cultured in 10% FBS DMEM medium, and then detached from the culture plate by trypsin treatment. The cells were washed three times with cold binding buffer (PBS pH 6.0, 10 mM EDTA), and then diluted in binding buffer at a concentration of 10⁵ cells/ml. 100 μl of the cell dilution was dispensed into each 1.5-ml tube in such a manner that each tube contained 10⁴ cells, and 1 μl of HL161 antibody (1 mg/ml) was added to the dispensed cells. Next, the cells were incubated on ice. As control antibodies, 1 μl of each of mouse 1G3 antibody and human IgG antibody (Abcam, cat#. 409120), which bind to rat FcRn, was used. The 1G3 antibody was produced and purified from mouse hybridoma cells (ATCC CRL2434). The cells were recovered by centrifugation at 4° C. and 4000 rpm for 5 minutes, after which the cells were washed once with binding buffer and resuspended in 100 μl of binding buffer. As FITC-conjugated secondary antibody, 1 μl of anti-human IgG goat antibody (Invitrogen, cat#. A11013) was added to the cells. In the case of the experiment using anti-rat FcRn mouse antibody, the anti-mouse IgG goat antibody (Invitrogen, cat#. A11001) was incubated with the cells on ice for 1 hour, and then the cells were recovered by centrifugation at 4° C. and 4000 rpm for 5 minutes, washed once with binding buffer, resuspended in 400 μl of binding buffer and analyzed by FACS to examine the cross-reactivity of the HL161 antibodies with rat FcRn (see FIG. 4). An experiment at a pH of 7.4 was performed using binding buffer at a pH of 7.4 in the same manner as the experiment using binding buffer at a pH of 6.0. The degree of the binding of each antibody to rat FcRn was presented as relative MFI based on human IgG.

[3] = biological target: T4, human FcRn on HEK293 cells (human, UniProt P55899 24-365; P61769 21-119); test: FACS on hFcRn-overexpressing HEK293 cells at pH 7.4, Alexa488 anti-human goat antibody; MFI relative to hIgG1
T4 construct: whole, on cells; also called hFcRn
Protocol: (§3) In stable HEK293 cells expressing human FcRn, the degrees of binding of antibody to FcRn at various pHs were analyzed using a FACS system. Specifically, 100,000 stable HEK293 cells were washed with PBS and centrifuged in a table top microcentrifuge at 4500 rpm for 5 minutes to obtain pellets. 1 μg of antibody was added to 100 μl of pH 6.0 or pH 7.4PBS/10 mM EDTA. The cell pellets were resuspended in 100 μl of the antibody solution and incubated on ice for 60 minutes. The cells were washed once with 150 μl of buffer having pH difference, and then pellets were obtained therefrom. Alexa488-labeled anti-human antibody goat antibody (1 mg/ml) was diluted at 1:20 in buffer having pH difference, and the pellets were resuspended in 100 μl of the buffer, and then cultured on ice for 60 minutes. The cells were washed once with 150 μl of buffer having pH difference, and pellets were obtained therefrom and resuspended in buffer having pH difference. The suspension was transferred into a tube for FACS analysis. These cells were analyzed by FACS using BD FACSDiva™ v6.1.3 software (BD Bioscience). The results of the analysis were expressed as Mean Fluorescence Intensity (MFI) (see FIG. 2).

[4] = biological target: T4, human FcRn on HEK293 cells; test: FACS on hFcRn-overexpressing HEK293 cells at pH 6.0, Alexa488 anti-human goat antibody; MFI relative to hIgG1
Protocol: as §3

[5] = biological target: T4, human FcRn on HEK293 cells; test: FACS competition on hFcRn HEK293 cells at pH 6.0; remaining binding of 100 nM Alexa488-labeled hIgG1 (m14) with 500 nM competitor antibody, percent of the tube without competitor
Protocol: (§4) In stable HEK293 cells expressing human FcRn, the blocking of the antibody against FcRn was analyzed by FACS. The antibody was diluted in binding buffer (PBS pH 6.0, 10 mM EDTA) at concentrations of 2,000 nM, […] to make 50 μl of dilutions, which were dispensed into tubes. […] Stable HEK293 cells were diluted in binding buffer at a concentration of 2,500,000 cells/ml, and 40 μl of the cell dilution was added to each of the labeled antibody-containing tubes. Thus, a final volume of 100 μl contained 100,000 cells, 100 nM labeled antibody and 1000 nM, 500 nM or 250 nM competitor antibody. The cells were washed once with 150 μl of buffer (pH 6.0), and pellets were obtained therefrom and resuspended in 150 μl of buffer having pH difference. The suspension was transferred into a tube for FACS analysis. The cells were analyzed by FACS using BD FACSDiva™ v6.1.3 software (BD Bioscience). The results of the analysis were expressed as mean fluorescence intensity (MFI).
(§5) The MFI of the test group was processed after subtracting the MFI (background signal) measured in cells alone.

soluble human FcRn [6] = biological target: T1, soluble human FcRn; test: SPR, shFcRn immobilised, pH 6.0
Protocol: as §1, §2

[7] = biological target: T4, human FcRn on HEK293 cells; test: FACS competition on hFcRn HEK293 cells at pH 6.0; remaining binding of 100 nM Alexa488-labeled hIgG1 (m14) with 250 nM competitor antibody, percent of the tube without competitor
Protocol: as §4, §5

[8] = biological target: T4, human FcRn on HEK293 cells; test: FACS competition on hFcRn HEK293 cells at pH 6.0; remaining binding of 100 nM Alexa488-labeled hIgG1 (m14) with 1000 nM competitor antibody, percent of the tube without competitor
Protocol: as §4, §5

B1: HL161-10E (antibody, V domains shown)
VH: QVQLVESGGGLVQPGGSLRLSCAASGFRFSNFAMTWVRQAPGKGLEWVSTLSGSGGSIHHADSVKGRFTISRDNSKNTLYLQMNSLRAEDTAVYYCAKGPLRGQPAYLDPWGQGTLVTVSS
VL: SYELTQPLSVSMSPGQTARITCSGDALSKQYASWYQLKPGQAPVVVMYKDTERPSGIPDRFSGSSSGTTVTLTISGVQAEDEADYYCQSITDKSGTDVIFGGGTKLTVL
notes: Whole human IgG from pNATAB vectors
kon (soluble human FcRn [1]): 310000 M⁻¹ s⁻¹

B4: HL161-6C (antibody, V domains shown)
VH: QVQLVESGAEVKKPGASVKVSCKASGYTFTSYYMHWVRQAPGQGLEWMGIINPSGGSTSYAQKFQGRVTMTRDTSTSTVYMELSSLRSEDTAVYYCARGGGAFDIWGQGTMVTVSS
VL: DIQMTQSPSSVSASVGDRVTITCRASQGISNWVAWYQQKPGKAPKLLIYAASSLQSGVPSRFSGSGSGTDFTLTISSLQPEDFAIYYCQQGHSFPYTFGQGTKVEIK
notes: as for B1
Relative MFI (Fold) [3]: 1.3 fold | Relative MFI (Fold) [4]: 0.9 fold | Relative MFI(%) at 500nM [5]: 84.7% | koff (soluble human FcRn [6]): 0.0019 s⁻¹ | kon (soluble human FcRn [6]): 1e+06 M⁻¹ s⁻¹ | koff (soluble human FcRn [1]): 0.0031 s⁻¹ | kon (soluble human FcRn [1]): 470000 M⁻¹ s⁻¹ | Relative MFI(%) at 250nM [7]: 88.2% | Relative MFI(%) at 1000nM [8]: 81.1%

Next, values leading:

binding result [2]: binds | binding result (rat FcRn on Rat-2 cells): binds
B2: HL161-1A (antibody, V domains shown)
VH: QVQLVQSGGGLVQPGRSLRLSCAASGFSFGEYGMHWVRQAPGKGLEWVSGVSWNSGSIAYADSVRGRFTISRDNSKNSLYLQMNSLRAEDTAVYYCARGRSMDVWGQGTTVTVSS
VL: NFMLTQPASVSGSPGQTITISCTGSSSDVGGYNYVSWYQQHPGKAPQLIIYDVTKRPSGVSNRFSGSKSGNSASLTISGLQAEDEADYYCSSYSSSTFYVFGTGTKVTVL
notes: as for B1

binding result [2]: binds | binding result (rat FcRn on Rat-2 cells): binds
B3: HL161-11G (antibody, V domains shown)
VH: QMQLVESGGGVVQPGRSLRLSCVGSGFNFNSYGIHWVRQAPGKGLEWVGGIFYDGSQVKYADSVKGRVSISRDNSKNTAYLQMNSLRAEDTAVYYCARRNLLDYWGQGTVVTVSS
VL: B2 VL with T17S
notes: Whole human IgG from pNATAB vectors; also called h1161-11G
